Substrate in data set [1]: O=P(O)(O)OP(=O)(O)O
Nature of the data set: phosphate release, BIOMOL Green, A650. The note with it: 2 mM MgCl2, 100 mM KCl, 50 mM Tris-HCl pH 7.5, 60 °C. The class given is biochemical, Thermus thermophilus. The text has this:
phosphate release, BIOMOL Green, A650 on ttPPase (inorganic pyrophosphatase)

Substrate in data set [2]: O=C(O)C[C@H](C(=O)O)[C@@H](O)C(=O)O
As to the kind of experiment: A340 spectrophotometry. The class given is biochemical, Thermus thermophilus. The note with it: 4 mM NADP+, 5 mM MgCl2, 100 mM KCl, 50 mM Tris-HCl pH 7.5, 60 °C. The text has this: (§1) A340 spectrophotometry on ttIDH (isocitrate dehydrogenase)

Substrate in data set [3]: NC(=O)c1ccc[n+]([C@@H]2O[C@H](COP(=O)(O)OP(=O)(O)OC[C@H]3O[C@@H](n4cnc5c(N)ncnc54)[C@H](OP(=O)(O)O)[C@@H]3O)[C@@H](O)[C@H]2O)c1
As to the kind of experiment: A340 spectrophotometry. The class given is biochemical, Thermus thermophilus. Particulars: 2 mM isocitrate, 5 mM MgCl2, 100 mM KCl, 50 mM Tris-HCl pH 7.5, 60 °C.
Text: as §1

Substrate in the data set “purified protein”: O=C(O)CC(=O)C(=O)O
As to the kind of experiment: purified protein. The note with it: 0.15 mM NADH, 5 mM MgCl2, 100 mM KCl, 50 mM Tris-HCl pH 7.5, 30 °C, 30.0 °C.

Substrate in data set [4]: NC(=O)C1=CN([C@@H]2O[C@H](COP(=O)(O)OP(=O)(O)OC[C@H]3O[C@@H](n4cnc5c(N)ncnc54)[C@H](O)[C@@H]3O)[C@@H](O)[C@H]2O)C=CC1
Nature of the data set: A340 spectrophotometry. The class given is biochemical, Thermus thermophilus. The note with it: 25 μM oxaloacetate, 5 mM MgCl2, 100 mM KCl, 50 mM Tris-HCl pH 7.5, 30 °C. The text has this: A340 spectrophotometry on ttMDH (malate dehydrogenase)

Substrate in data set [5]: Nc1ncnc2c1ncn2[C@@H]1O[C@H](COP(=O)(O)OP(=O)(O)OP(=O)(O)O)[C@@H](O)[C@H]1O
As to the kind of experiment: pyruvate kinase/lactate dehydrogenase coupled assay, A340. The class given is biochemical, Thermus thermophilus. Particulars: excess UMP (methods print 1 mM CMP), 25 °C, pH 7.5, 5 mM MgCl2.

Substrate in data set [6]: Nc1ncnc2c1ncn2[C@@H]1O[C@H](COP(=O)(O)OP(=O)(O)OP(=O)(O)O)[C@@H](O)[C@H]1O
The data set is described as above. The class given is biochemical, Thermus thermophilus. The note with it: 1 mM CMP, 25 °C, pH 7.5, 5 mM MgCl2. The text has this: (§2) pyruvate kinase/lactate dehydrogenase coupled assay, A340 on ttCMPK (CMP kinase)

Substrate in data set [7]: Nc1ccn([C@@H]2O[C@H](COP(=O)(O)O)[C@@H](O)[C@H]2O)c(=O)n1
The description is as above. The data set is classed as biochemical, Thermus thermophilus. Particulars: 1 mM ATP, 25 °C, pH 7.5, 5 mM MgCl2.
Text: as §2

Substrate in data set [8]: Nc1ncnc2c1ncn2[C@@H]1O[C@H](COP(=O)(O)O)[C@@H](O)[C@H]1O
The description is as above. The note with it: 1 mM ATP, 5 mM MgCl2, 100 mM KCl, 50 mM Tris-HCl pH 7.5, 25 °C. The data set is classed as biochemical, Thermus thermophilus. The text has this: pyruvate kinase/lactate dehydrogenase coupled assay, A340 on ttAMPK (AMP kinase)

B1: ttPPase (inorganic pyrophosphatase) (Thermus thermophilus HB8) (protein)
chain: ANLKSLPVGDKAPEVVHMVIEVPRGSGNKYEYDPDLGAIKLDRVLPGAQFYPGDYGFIPSTLAEDGDPLDGLVLSTYPLLPGVVVEVRVVGLLLMEDEKGGDAKVIGVVAEDQRLDHIQDIGDVPEGVKQEIQHFFETYKALEAKKGKWVKVTGWRDRKAALEEVRACIARYKG
notes: recombinant in E. coli C41(DE3)pRARE2, pET-11a, no tag mentioned
In the case of B1, in data set [1], the Km (in general, the substrate concentration at which the rate is half of its maximum) was found to be 17 ± 2 µM and the kcat (usually the maximal rate divided by the concentration of active sites) is 62 ± 11 s⁻¹.

B2: ttPPase (inorganic pyrophosphatase) (Thermus thermophilus HB8; Y140F) (protein)
chain: ANLKSLPVGDKAPEVVHMVIEVPRGSGNKYEYDPDLGAIKLDRVLPGAQFYPGDYGFIPSTLAEDGDPLDGLVLSTYPLLPGVVVEVRVVGLLLMEDEKGGDAKVIGVVAEDQRLDHIQDIGDVPEGVKQEIQHFFETFKALEAKKGKWVKVTGWRDRKAALEEVRACIARYKG
notes: as for B1
As for B2, in data set [1], the Km is 53 ± 0 µM and the kcat came out at 19 ± 3 s⁻¹.

B3: ttIDH (isocitrate dehydrogenase) (Thermus thermophilus HB8) (protein)
chain: PLITTETGKKMHVLEDGRKLITVIPGDGIGPECVEATLKVLEAAKAPLAYEVREAGASVFRRGIASGVPQETIESIRKTRVVLKGPLETPVGYGEKSANVTLRKLFETYANVRPVREFPNVPTPYAGRGIDLVVVRENVEDLYAGIEHMQTPSVAQTLKLISWKGSEKIVRFAFELARAEGRKKVHCATKSNIMKLAEGTLKRAFEQVAQEYPDIEAVHIIVDNAAHQLVKRPEQFEVIVTTNMNGDILSDLTSGLIGGLGFAPSANIGNEVAIFEAVHGSAPKYAGKNVINPTAVLLSAVMMLRYLEEFATADLIENALLYTLEEGRVLTGDVVGYDRGAKTTEYTEAIIQNLGKTPRKTQVRGYKPFRLPQVDGAIAPIVPRSRRVVGVDVFVETNLLPEALGKALEDLAAGTPFRLKMISNRGTQVYPPTGGLTDLVDHYRCRFLYTGEGEAKDPEILDLVSRVASRFRWMHLEKLQEFDGEPGFTKAQGED
notes: as for B1
As to B3, in “A340 spectrophotometry [2]”, the Km is 34 ± 2 µM and the kcat stood at 26 ± 1 s⁻¹. In “A340 spectrophotometry [3]”, the Km was found to be 39 ± 1 µM and the kcat was 30 ± 2 s⁻¹.

B4: ttIDH (isocitrate dehydrogenase) (Thermus thermophilus HB8; S98E) (protein)
chain: PLITTETGKKMHVLEDGRKLITVIPGDGIGPECVEATLKVLEAAKAPLAYEVREAGASVFRRGIASGVPQETIESIRKTRVVLKGPLETPVGYGEKEANVTLRKLFETYANVRPVREFPNVPTPYAGRGIDLVVVRENVEDLYAGIEHMQTPSVAQTLKLISWKGSEKIVRFAFELARAEGRKKVHCATKSNIMKLAEGTLKRAFEQVAQEYPDIEAVHIIVDNAAHQLVKRPEQFEVIVTTNMNGDILSDLTSGLIGGLGFAPSANIGNEVAIFEAVHGSAPKYAGKNVINPTAVLLSAVMMLRYLEEFATADLIENALLYTLEEGRVLTGDVVGYDRGAKTTEYTEAIIQNLGKTPRKTQVRGYKPFRLPQVDGAIAPIVPRSRRVVGVDVFVETNLLPEALGKALEDLAAGTPFRLKMISNRGTQVYPPTGGLTDLVDHYRCRFLYTGEGEAKDPEILDLVSRVASRFRWMHLEKLQEFDGEPGFTKAQGED
notes: as for B1
On to B4, for which, in the data set “A340 spectrophotometry [2]”, the Km was found to be 178 ± 28 µM and the kcat amounted to 0.19 ± 0.02 s⁻¹. In “A340 spectrophotometry [3]”, the Km was 144 ± 21 µM and the kcat is 0.12 ± 0 s⁻¹.

B5: ttMDH (malate dehydrogenase) (Thermus thermophilus HB8) (protein)
chain: MKAPVRVAVTGAAGQIGYSLLFRIAAGEMLGKDQPVILQLLEIPQAMKALEGVVMELEDCAFPLLAGLEATDDPKVAFKDADYALLVGAAPRKAGMERRDLLQVNGKIFTEQGRALAEVAKKDVKVLVVGNPANTNALIAYKNAPGLNPRNFTAMTRLDHNRAKAQLAKKTGTGVDRIRRMTVWGNHSSTMFPDLFHAEVDGRPALELVDMEWYEKVFIPTVAQRGAAIIQARGASSAASAANAAIEHIRDWALGTPEGDWVSMAVPSQGEYGIPEGIVYSFPVTAKDGAYRVVEGLEINEFARKRMEITAQELLDEMEQVKALGLI
notes: as for B1
In the case of B5, in “purified protein”, the Km stood at 8.6 ± 0.4 µM and the kcat stood at 203 ± 5 s⁻¹. Besides, in the data set “A340 spectrophotometry [4]”, the Km was 2.7 ± 0.9 µM and the kcat was 126 ± 14 s⁻¹.

B6: ttMDH (malate dehydrogenase) (Thermus thermophilus HB8; S236A) (protein)
chain: MKAPVRVAVTGAAGQIGYSLLFRIAAGEMLGKDQPVILQLLEIPQAMKALEGVVMELEDCAFPLLAGLEATDDPKVAFKDADYALLVGAAPRKAGMERRDLLQVNGKIFTEQGRALAEVAKKDVKVLVVGNPANTNALIAYKNAPGLNPRNFTAMTRLDHNRAKAQLAKKTGTGVDRIRRMTVWGNHSSTMFPDLFHAEVDGRPALELVDMEWYEKVFIPTVAQRGAAIIQARGAASAASAANAAIEHIRDWALGTPEGDWVSMAVPSQGEYGIPEGIVYSFPVTAKDGAYRVVEGLEINEFARKRMEITAQELLDEMEQVKALGLI
notes: as for B1
As to B6, in “purified protein”, the Km amounted to 52 ± 2 µM and the kcat came to 622 ± 8 s⁻¹. In “A340 spectrophotometry [4]”, the Km came out at 7.6 ± 0.2 µM and the kcat was 468 ± 15 s⁻¹.

B7: ttUMPK (UMP kinase) (Thermus thermophilus HB8; S11A) (protein)
chain: MKYKRVLLKLAGEFLTRNGFGIEPEATQALAREIKAAYDTGVQLAIVIGAGNLWRGARQGVGMDRATADYIGMLATIMNALALQDALESLGVPTRVQTALTITQVAEPYIRRRALRHLEKERIVIFGGGTGNPFFSTDTAAALRALEVGAEVVLMAKNKVDGVYSDDPRKNPEAVRFDELTYLEVLNRGLQVMDTTAITLCMEAGLPIVVFDIFKPGALVGIIQGEKVGTLIH
notes: recombinant in E. coli C41(DE3)pRARE2, pET-11a, no tag mentioned; hexamer (prokaryotic UMP kinases)
B7: in data set [5], the Km was 732 ± 206 µM and the kcat was determined as 0.04 ± 0.02 s⁻¹.

B8: ttCMPK (CMP kinase) (Thermus thermophilus HB8; S11E) (protein)
chain: MRGIVTIDGPEASGKSSVARRVAAALGVPYLSSGLLYRAAAFLALRAGVDPGDEEGLLALLEGLGVRLLAQAEGNRVLADGEDLTSFLHTPEVDRVVSAVARLPGVRAWVNRRLKEVPPPFVAEGRDMGTAVFPEAAHKFYLTASPEVRAWRRARERPQAYEEVLRDLLRRDERDKAQSAPAPDALVLDTGGMTLDEVVAWVLAHIRR
notes: recombinant in E. coli C41(DE3)pRARE2, pET-11a, no tag mentioned; monomer
B8: in data set [6], the Km stood at 60 ± 14 µM and the kcat was determined as 0.05 ± 0.01 s⁻¹.

B9: ttCMPK (CMP kinase) (Thermus thermophilus HB8; S11A) (protein)
chain: MRGIVTIDGPAASGKSSVARRVAAALGVPYLSSGLLYRAAAFLALRAGVDPGDEEGLLALLEGLGVRLLAQAEGNRVLADGEDLTSFLHTPEVDRVVSAVARLPGVRAWVNRRLKEVPPPFVAEGRDMGTAVFPEAAHKFYLTASPEVRAWRRARERPQAYEEVLRDLLRRDERDKAQSAPAPDALVLDTGGMTLDEVVAWVLAHIRR
notes: as for B8
Take B9: in data set [7], the Km stood at 53 ± 3 µM and the kcat worked out at 57 ± 8 s⁻¹.

B10: ttAMPK (AMP kinase) (Thermus thermophilus HB8) (protein)
chain: MDVGQAVIFLGPPGAGKGTQASRLAQELGFKKLSTGDILRDHVARGTPLGERVRPIMERGDLVPDDLILELIREELAERVIFDGFPRTLAQAEALDRLLSETGTRLLGVVLVEVPEEELVRRILRRAELEGRSDDNEETVRRRLEVYREKTEPLVGYYEARGVLKRVDGLGTPDEVYARIRAALGI
notes: recombinant in E. coli Rosetta2(DE3), pET-3a, no tag mentioned; monomer
B10: in [8], the Km was found to be 23 ± 1 µM and the kcat was determined as 111 ± 3 s⁻¹.

B11: ttAMPK (AMP kinase) (Thermus thermophilus HB8; S34E) (protein)
chain: MDVGQAVIFLGPPGAGKGTQASRLAQELGFKKLETGDILRDHVARGTPLGERVRPIMERGDLVPDDLILELIREELAERVIFDGFPRTLAQAEALDRLLSETGTRLLGVVLVEVPEEELVRRILRRAELEGRSDDNEETVRRRLEVYREKTEPLVGYYEARGVLKRVDGLGTPDEVYARIRAALGI
notes: as for B10
For B11, in data set [8], the Km was 153 ± 1 µM and the kcat stood at 3.7 s⁻¹.

B12: ttAMPK (AMP kinase) (Thermus thermophilus HB8; S34A) (protein)
chain: MDVGQAVIFLGPPGAGKGTQASRLAQELGFKKLATGDILRDHVARGTPLGERVRPIMERGDLVPDDLILELIREELAERVIFDGFPRTLAQAEALDRLLSETGTRLLGVVLVEVPEEELVRRILRRAELEGRSDDNEETVRRRLEVYREKTEPLVGYYEARGVLKRVDGLGTPDEVYARIRAALGI
notes: as for B10
Consider B12, for which, in data set [8], the Km was 71 ± 2 µM and the kcat is 142 ± 4 s⁻¹.

The values above are taken from article PMC12667214, “Phosphomimetic mutations near active sites of proteins in Thermus thermophilus suggest a widespread regulatory mechanism” (FEBS Open Bio, 2025).
